We go through two proteins from paper PMC6597010 (Cell, 2019).

The data set deals with the molecule itself. The data set can be described thus: cryo-EM structure.

B1: C-terminal Strep-tag HsMCU (human mitochondrial calcium uniporter) (natural protein)
chain: VHQRIASWQNLGAVYCSTVVPSDDVTVVYQNGLPVISVRLPSRRERCQFTLKPISDSVGVFLRQLQEEDRGIDRVAIYSPDGVRVAASTGIDLLLLDDFKLVINDLTYHVRPPKRDLLSHENAATLNDVKTLVQQLYTTLCIEQHQLNKERELIERLEDLKEQLAPLEKVRIEISRKAEKRTTLVLWGGLAYMATQFGILARLTWWEYSWDIMEPVTYFITYGSAMAMYAYFVMTRQEYVYPEARDRQYLLFFHKGAKKSRFDLEKYNQLKDAIAQAEMDLKRLRDPLQVHLPLRQIGEKD
As a reminder, the stoichiometry N is a count of units in the complex or per binding partner. As for B1, the “stoichiometry N” value was determined as 4.

B2: human MCU/EMRE complex (one channel: MCU tetramer with four EMRE subunits) (complex)
chain 1: VHQRIASWQNLGAVYCSTVVPSDDVTVVYQNGLPVISVRLPSRRERCQFTLKPISDSVGVFLRQLQEEDRGIDRVAIYSPDGVRVAASTGIDLLLLDDFKLVINDLTYHVRPPKRDLLSHENAATLNDVKTLVQQLYTTLCIEQHQLNKERELIERLEDLKEQLAPLEKVRIEISRKAEKRTTLVLWGGLAYMATQFGILARLTWWEYSWDIMEPVTYFITYGSAMAMYAYFVMTRQEYVYPEARDRQYLLFFHKGAKKSRFDLEKYNQLKDAIAQAEMDLKRLRDPLQVHLPLRQIGEKD
chain 2: VSAAWSGSGRSLVPSRSVIVTRSGAILPKPVKMSFGLLRVFSIVIPFLYVGTLISKNFAALLEEHDIFVPEDDDDDD
Consider B2, for which the “stoichiometry N” value amounted to 2.
